Measured values from the RNAGym collection of RNA variant scans (doi:10.1093/molbev/msab373).

B1: Azoarcus group I ribozyme (parent)
chain: GUGCCUUGCGCCGGGAAACCACGCAAGGGAUGGUGUCAAAUUCGGCGAAACCUAAGCGCCCGCCCGGGCGUAUGGCAACGCCGAGCCAAGCUUCGGCGCCUGCGCCGAUGAAGGUGUAGAGACUAGACGGCACCCACCUAAGGCAAACGCUAUGGUGAAGGCAUAGUCCAGGGAGUGGCGAAAGUCACACAAACCGG

Variants of: B1
Assay: reverse-splicing fitness (ratio to wild type); higher = more active; in vitro selection; Mg2+ level not given
In short: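 An in vitro group I ribozyme library with randomized positions was T7-transcribed and gel-purified. In triplicate, 10 pmol RNA in EPPS pH 7.5 was reacted with 50 pmoles of a 30-nt RNA substrate for 1 h at 37 °C across several added MgCl2 levels (1–48 mM), then stopped with EDTA. Products were reverse transcribed from a substrate-complementary primer, PCR-amplified and sequenced (HiSeq 4000). Fitness is a variant's read proportion after selection over that before, normalised to wild type.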

Variant | reverse-splicing fitness
C82U A111U A120G A145C C150G C169U | 0.00686
C82U A111U A120U A145C C150G C169G U176G | 0.00175
C82U A111U A120U A145C C150G C169G U176A | 0.00245
C82U A111U A120U A145C C150G C169G U176C | 0.00216
C82U A111U A120G A145C C150G C169A U176A | 0.00764
C82U A111U A120G A145C C150G C169A U176G | 0.00478
C82U A111U A120G A145C C150G C169A U176C | 0.006
C82U A111U A120G C150G C169A | 0.00782
C82U A111U A120G C150G C169G | 0.00757
C82U A111U A120G C150G C169U | 0.00755
C82U A111U A120G A145G C150U C169A | 0.00995
C82U A111U A120G A145G C150U C169U | 0.0104
C82U A111U A120G A145G C150U C169G | 0.00964
C82U A111U A120G A145G C169U | 0.00849
C82U A111U A120G A145G C169G | 0.00995
C82U A111U A120G A145G C169A | 0.01
C82U A111U A120G A145G C169G U176G | 0.00377
C82U A111U A120G A145G C169G U176A | 0.0214
C82U A111U A120G A145G C169G U176C | 0.027
C82U A111U A120G A145G C150G C169U | 0.0089
C82U A111U A120G A145G C150G C169G | 0.00719

Variant | reverse-splicing fitness
C82U A111U A120G A145G C150G C169A | 0.00888
C82U A111U A120U A145C C169G | 0.00316
C82U A111U A120U A145C C169U | 0.00314
C82U A111U A120U A145C C169A | 0.00225
C82U A111U A120G C150U C169U U176G | 0.00647
C82U A111U A120G C150U C169U U176C | 0.0158
C82U A111U A120G C150U C169U U176A | 0.0214
C82U A111U A120G A145G C150U C169A U176G | 0.00525
C82U A111U A120G A145G C150U C169A U176A | 0.0135
C82U A111U A120G A145G C150U C169A U176C | 0.0123
C82U A111U A120G A145G C150U C169U U176G | 0.00481
C82U A111U A120G A145G C150U C169U U176C | 0.014
C82U A111U A120G A145G C150U C169U U176A | 0.0194
C82U A111U A120G C150U C169A U176G | 0.005
C82U A111U A120G C150U C169A U176C | 0.0129
C82U A111U A120G C150U C169A U176A | 0.0156
C82U A111U A120G A145C C150G C169G U176C | 0.0069
C82U A111U A120G A145C C150G C169G U176G | 0.00424
C82U A111U A120G A145C C150G C169G U176A | 0.00849
C82U A111U A120U A145C C169A U176G | 0.00173
C82U A111U A120U A145C C169A U176A | 0.00226
